These results are taken from patent US20260216326A1 (PROMETHEUS BIOSCIENCES, published 2026).

Positions count from the first letter of the chain named.

To fix the notation:
T1: human TL1A (human, UniProt O95150 72-251, limits assumed)
T1 construct: also called tumor necrosis factor-like cytokine 1A; TNFSF15
T1 sequence (looked up): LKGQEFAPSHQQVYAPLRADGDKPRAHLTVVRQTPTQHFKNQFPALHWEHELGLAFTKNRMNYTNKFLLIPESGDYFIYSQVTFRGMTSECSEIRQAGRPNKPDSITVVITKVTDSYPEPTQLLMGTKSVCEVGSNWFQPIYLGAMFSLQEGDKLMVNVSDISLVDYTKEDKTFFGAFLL

T2: TL1A in human blood (human, UniProt O95150 72-251, limits assumed)
T2 sequence (looked up): T1 sequence (looked up)

B1: A180 (antibody, IgG1, V domains shown)
VH: QVQLVQSGAEVKKPGASVKVSCKASGFDIQDTYMHWVRQAPGQGLEWMGRIEPASGHIKYDPKFQGRATMTRDTSTSTAYMELSSLRSEDTAVYYCARSGGLPDWWGQGTTVTVSS
VL: EIVLTQSPGTLSLSPGERATLSCRASSSVSYMYWYQQKPGQAPRPLIYATSNLASGIPDRFSGSGSGTDFTLTISRLEPEDFAVYYCQQWEGNPRTFGGGTKLEIK
B2: A199 (antibody, IgG1, V domains shown)
VH: EVQLVQSGAEVKKPGASVKVSCKASGFDIQDTYMHWVKQRPGQGLEWIGRIDPASGHTKYDPKFQVRATITTDTSTSTAYLELSSLRSEDTAVYYCARSGGLPDVWGQGTTVTVSS
VL: B1 VL
B3: A192 (antibody, IgG1, V domains shown)
VH: B2 VH with E1Q, A79V, L81M
VL: B1 VL with P45L
B4: A211 (antibody, IgG1, V domains shown)
VH: B2 VH with E1Q
VL: B1 VL
B5: A183 (antibody, IgG1, V domains shown)
VH: B2 VH with E1Q, I48M
VL: B1 VL with P45L
B6: A215 (antibody, IgG1, V domains shown)
VH: B2 VH with E1Q, K38R, I48M, A68V
VL: B1 VL
B7: A194 (antibody, IgG1, V domains shown)
VH: B2 VH with K38R
VL: B1 VL with L46W
B8: A198 (antibody, IgG1, V domains shown)
VH: B1 VH with Q1E, A68V
VL: B1 VL with L46W
B9: A190 (antibody, IgG1, V domains shown)
VH: B2 VH with E1Q, A79V
VL: B1 VL with P45L
B10: A181 (antibody, IgG1, V domains shown)
VH: B2 VH with E1Q, K38R
VL: B1 VL with P45L
B11: A193 (antibody, IgG1, V domains shown)
VH: B2 VH
VL: B1 VL with L46W
B12: A204 (antibody, IgG1, V domains shown)
VH: B1 VH with Q1E, A68V
VL: B1 VL
B13: A188 (antibody, IgG1, V domains shown)
VH: B2 VH with E1Q, A68V
VL: B1 VL with P45L
B14: A224 (antibody, IgG1, V domains shown)
VH: B1 VH with Q1E, R38K, A68V, A79V
VL: B1 VL
B15: A218 (antibody, IgG1, V domains shown)
VH: B2 VH with E1Q, I48M, A68V, T72R, L81M
VL: B1 VL
B16: A206 (antibody, IgG1, V domains shown)
VH: B2 VH with K38R
VL: B1 VL with P45L
B17: A185 (antibody, IgG1, V domains shown)
VH: B2 VH with E1Q, I70M, T72R
VL: B1 VL with P45L
B18: A197 (antibody, IgG1, V domains shown)
VH: B1 VH with Q1E, R38K, A68V, A79V
VL: B1 VL with L46W
B19: A187 (antibody, IgG1, V domains shown)
VH: B2 VH with E1Q, A68V, T72R
VL: B1 VL with P45L
B20: A189 (antibody, IgG1, V domains shown)
VH: B2 VH with E1Q, A68V, I70M
VL: B1 VL with P45L
B21: A200 (antibody, IgG1, V domains shown)
VH: B2 VH with K38R
VL: B1 VL
B22: A182 (antibody, IgG1, V domains shown)
VH: B2 VH with E1Q, R40A
VL: B1 VL with P45L
B23: A191 (antibody, IgG1, V domains shown)
VH: B2 VH with E1Q, L81M
VL: B1 VL with P45L
B24: A217 (antibody, IgG1, V domains shown)
VH: B2 VH with E1Q, I48M, A68V, T72R, A79V, L81M
VL: B1 VL
B25: A196 (antibody, IgG1, V domains shown)
VH: B1 VH with Q1E, A79V
VL: B1 VL with L46W
B26: A210 (antibody, IgG1, V domains shown)
VH: B1 VH with Q1E, A68V
VL: B1 VL with P45L
B27: A205 (antibody, IgG1, V domains shown)
VH: B2 VH
VL: B1 VL with P45L
B28: A223 (antibody, IgG1, V domains shown)
VH: B2 VH with K38R
VL: B1 VL with P45L
B29: A186 (antibody, IgG1, V domains shown)
VH: B2 VH with E1Q, I70M
VL: B1 VL with P45L
B30: A216 (antibody, IgG1, V domains shown)
VH: B2 VH with E1Q, K38R, A68V, T72R
VL: B1 VL
B31: A209 (antibody, IgG1, V domains shown)
VH: B1 VH with Q1E, R38K, A68V, A79V
VL: B1 VL with P45L
B32: A201 (antibody, IgG1, V domains shown)
VH: B1 VH with Q1E, M70I, R72T, A79V
VL: B1 VL
B33: A195 (antibody, IgG1, V domains shown)
VH: B1 VH with Q1E, M70I, R72T, A79V
VL: B1 VL with L46W
B34: A203 (antibody, IgG1, V domains shown)
VH: B1 VH with Q1E, R38K, A68V, A79V
VL: B1 VL
B35: A184 (antibody, IgG1, V domains shown)
VH: B2 VH with E1Q, T72R
VL: B1 VL with P45L
B36: A202 (antibody, IgG1, V domains shown)
VH: B1 VH with Q1E, A79V
VL: B1 VL
B37: A222 (antibody, IgG1, V domains shown)
VH: B2 VH with E1Q, I48M, A68V, T72R
VL: B1 VL
B38: A214 (antibody, IgG1, V domains shown)
VH: B2 VH with E1Q, K38R, I48M, A68V, T72R
VL: B1 VL
B39: A147 (antibody, IgG1, V domains shown)
VH: B1 VH with R38K, A40R, A68V, A79V
VL: B1 VL

The first experiment has as its target T1, human TL1A. Description: ELISA titration on plate-coated human TL1A, unpurified culture supernatant.
B1 came in with a dissociation constant (Kd) of 0.058 nM. The same measure, in the same setting: with B2 the figure was 0.05 nM; with B3, 0.055 nM; with B4, 0.058 nM. On the same count and under the same terms, the value for B5 was 0.065 nM; that for B6 was 0.048 nM; that for B7 was 0.051 nM. Still for that read-out and setting: with B8 the figure was 0.053 nM.

B9 yielded a Kd of 0.057 nM. This Kd and that of the molecule before are within 1.5-fold of each other.

B10 returned a Kd of 0.06 nM. The same measure, in the same setting: the value for B11 was 0.055 nM.

B12 returned a dissociation constant (Kd) of 0.053 nM. Still for that read-out and setting: the value for B13 was 0.063 nM; that for B14 was 0.076 nM. Molecule B15 had a Kd of 0.051 nM. Same read-out and setting: the value for B16 was 0.05 nM. B17 showed a Kd of 0.056 nM. Same read-out and setting: with B18 the figure was 0.054 nM; with B19, 0.056 nM. The molecule B20 had a Kd of 0.076 nM. On the same count and under the same terms, the value for B21 was 0.052 nM; that for B22 was 0.067 nM. Same read-out and setting: the value for B23 was 0.057 nM.

On to B24, for which the affinity, expressed as Kd, was 0.043 nM. B25 displayed a Kd of 0.054 nM. The Kd values of the last two molecules are within 1.5-fold of each other. Same read-out and setting: with B26 the figure was 0.07 nM.

B27 returned a dissociation constant Kd of 0.055 nM.

The molecule B28 yielded a Kd of 0.062 nM. For the molecule B29, binding was characterised by a dissociation constant (Kd) of 0.067 nM. The Kd values of the last two molecules are within 1.5-fold of each other. On the same count and under the same terms, with B30 the figure was 0.049 nM. Same read-out and setting: the value for B31 was 0.058 nM; that for B32 was 0.058 nM.

The molecule B33 showed a dissociation constant (Kd) of 0.056 nM. As to B34, the Kd worked out at 0.062 nM. The same measure, in the same setting: with B35 the figure was 0.061 nM; with B36, 0.059 nM. Same read-out and setting: with B37 the figure was 0.06 nM; with B38, 0.051 nM.

In a further experiment the target is T2, TL1A in human blood. Description: cell-based or functional assay.
As for B39, the “% Inhibition at 1 nM Ig; interferon gamma release in human blood” value was 51.3% and the “% Inhibition at 10 nM Ig; interferon gamma release in human blood” value stood at 72.4%. The like results for B24 were, in that order, 46% and 72.2%.
